Reference: patent US20050226813A1, “Labelled somatostatin analogs backbone cyclized through metal complexation” (priority 2002, published 2005)
*1 amine or outer side, *2 acyl side, *3 side chain or, on linkers, in order; H or OH if unused. Where no end group is shown, it is not given here. [ ]: non-standard residue; d: D form. ReO = oxorhenium(V), one metal core binding both hemi-chelators, from trichlorooxobis(triphenylphosphine)rhenium(V); GlyN3 = N-(3-aminopropyl)glycine amide, Cys acylated on the omega-amine, NC(=O)CN(CCCN[*:3])[*:1]; N(2-Aminoethyl)Gly = O=C(CN(CCN[*:3])[*:1])[*:2]

B1: ReO-GF-30 (peptide)
peptide: CFW[dW]KTF[GlyN3](dC)-NH2
modifications: bridge (positions not given here) via ReO; not fully specified (bridges); also: N2S2 oxorhenium(V) chelate via the two Cys
B2: ReO-GF-45 (peptide)
peptide: CFW[dW]KTF[N(2-Aminoethyl)Gly](Cys)-NH2
modifications: bridge (positions not given here) via ReO; not fully specified (bridges); also: N2S2 oxorhenium(V) chelate via the two Cys
B3: ReO-GF-28 (peptide)
peptide: CGFWWKTFG
modifications: not fully specified; D-Cys at 1; D-Trp at 5; GlyN3 building unit at 9 with D-Cys on its omega-amine; C-terminal amide; ReO (oxorhenium(V)) chelated by the two Cys closes the ring
B4: ReO-GF-36 (peptide)
peptide: CXFWWKTFG
modifications: not fully specified; D-Cys at 1; GABA at 2 (written X); D-Trp at 5; GlyN2 building unit at 9 with D-Cys on its omega-amine; C-terminal amide; ReO (oxorhenium(V)) chelated by the two Cys closes the ring
B5: ReO-GF-16 (peptide)
peptide: CFWWKTFG
modifications: not fully specified; D-Cys at 1; D-Trp at 4; GlyN6 building unit at 8 with D-Cys on its omega-amine; C-terminal amide; ReO (oxorhenium(V)) chelated by the two Cys closes the ring
B6: ReO-GF-29 (peptide)
peptide: CFWWKTFG
modifications: not fully specified; L-Cys at 1; D-Trp at 4; GlyN3 building unit at 8 with L-Cys on its omega-amine; C-terminal amide; ReO (oxorhenium(V)) chelated by the two Cys closes the ring
notes: also called ReO-LCys*-Phe-Trp-DTrp-Lys-Thr-Phe-GlyN3(LCys*)-NH2
B7: ReO-GF-38 (peptide)
peptide: CXFWWKTFG
modifications: L-Cys at 1; beta-Ala at 2 (written X); D-Trp at 5; GlyN2 building unit at 9 with D-Cys on its omega-amine; C-terminal amide; ReO (oxorhenium(V)) chelated by the two Cys closes the ring
B8: ReO-GF-5 (peptide)
peptide: CXFWWKTFG
modifications: L-Cys at 1; beta-Ala at 2 (written X); D-Trp at 5; GlyN6 building unit at 9 with L-Cys on its omega-amine; C-terminal amide; ReO (oxorhenium(V)) chelated by the two Cys closes the ring
B9: ReO-GF-21 (peptide)
peptide: CXFWWKTFG
modifications: L-Cys at 1; beta-Ala at 2 (written X); D-Trp at 5; GlyN3 building unit at 9 with L-Cys on its omega-amine; C-terminal amide; ReO (oxorhenium(V)) chelated by the two Cys closes the ring
notes: also called ReO-LCys*-βAla-Phe-Trp-DTrp-Lys-Thr-Phe-GlyN3(LCys*)-NH2
B10: ReO-GF-42 (peptide)
peptide: CGFW[dW]KTF[N(2-Aminoethyl)Gly](dC)-NH2
modifications: bridge (positions not given here) via ReO; not fully specified (bridges); also: N2S2 oxorhenium(V) chelate via the two Cys
B11: ReO-GF-14 (peptide)
peptide: CFWWKTFG
modifications: not fully specified; L-Cys at 1; D-Trp at 4; GlyN6 building unit at 8 with D-Cys on its omega-amine; C-terminal amide; ReO (oxorhenium(V)) chelated by the two Cys closes the ring
notes: also called ReO-LCys*-Phe-Trp-DTrp-Lys-Thr-Phe-GlyN6(DCys*)-NH2
B12: ReO-GF-19 (peptide)
peptide: CXFWWKTFG
modifications: D-Cys at 1; GABA at 2 (written X); D-Trp at 5; GlyN3 building unit at 9 with L-Cys on its omega-amine; C-terminal amide; ReO (oxorhenium(V)) chelated by the two Cys closes the ring
B13: ReO-GF-17 (peptide)
peptide: CXFWWKTFG
modifications: L-Cys at 1; GABA at 2 (written X); D-Trp at 5; GlyN3 building unit at 9 with L-Cys on its omega-amine; C-terminal amide; ReO (oxorhenium(V)) chelated by the two Cys closes the ring
B14: ReO-GF-27 (peptide)
peptide: CGFWWKTFG
modifications: not fully specified; D-Cys at 1; D-Trp at 5; GlyN3 building unit at 9 with L-Cys on its omega-amine; C-terminal amide; ReO (oxorhenium(V)) chelated by the two Cys closes the ring
B15: ReO-GF-43 (peptide)
peptide: CGFWWKTFG
modifications: not fully specified; D-Cys at 1; D-Trp at 5; GlyN2 building unit at 9 with L-Cys on its omega-amine; C-terminal amide; ReO (oxorhenium(V)) chelated by the two Cys closes the ring
B16: ReO-GF-12 (peptide)
peptide: CGFWWKTFG
modifications: not fully specified; D-Cys at 1; D-Trp at 5; GlyN6 building unit at 9 with D-Cys on its omega-amine; C-terminal amide; ReO (oxorhenium(V)) chelated by the two Cys closes the ring
B17: ReO-GF-32 (peptide)
peptide: CFWWKTFG
modifications: not fully specified; D-Cys at 1; D-Trp at 4; GlyN3 building unit at 8 with D-Cys on its omega-amine; C-terminal amide; ReO (oxorhenium(V)) chelated by the two Cys closes the ring
B18: ReO-GF-33 (peptide)
peptide: CXFWWKTFG
modifications: L-Cys at 1; GABA at 2 (written X); D-Trp at 5; GlyN2 building unit at 9 with L-Cys on its omega-amine; C-terminal amide; ReO (oxorhenium(V)) chelated by the two Cys closes the ring
B19: ReO-GF-10 (peptide)
peptide: CGFWWKTFG
modifications: not fully specified; L-Cys at 1; D-Trp at 5; GlyN6 building unit at 9 with D-Cys on its omega-amine; C-terminal amide; ReO (oxorhenium(V)) chelated by the two Cys closes the ring
notes: also called ReO-LCys*-Gly-Phe-Trp-DTrp-Lys-Thr-Phe-GlyN6(DCys*)-NH2
B20: ReO-GF-15 (peptide)
peptide: CFWWKTFG
modifications: not fully specified; D-Cys at 1; D-Trp at 4; GlyN6 building unit at 8 with L-Cys on its omega-amine; C-terminal amide; ReO (oxorhenium(V)) chelated by the two Cys closes the ring
B21: ReO-GF-3 (peptide)
peptide: CXFWWKTFG
modifications: D-Cys at 1; GABA at 2 (written X); D-Trp at 5; GlyN6 building unit at 9 with L-Cys on its omega-amine; C-terminal amide; ReO (oxorhenium(V)) chelated by the two Cys closes the ring
notes: also called ReO-GF-03; ReO-DCys*-GABA-Phe-Trp-DTrp-Lys-Thr-Phe-GlyN6(LCys*)-NH2
B22: ReO-GF-20 (peptide)
peptide: CXFWWKTFG
modifications: not fully specified; D-Cys at 1; GABA at 2 (written X); D-Trp at 5; GlyN3 building unit at 9 with D-Cys on its omega-amine; C-terminal amide; ReO (oxorhenium(V)) chelated by the two Cys closes the ring
B23: ReO-GF-22 (peptide)
peptide: CXFWWKTFG
modifications: L-Cys at 1; beta-Ala at 2 (written X); D-Trp at 5; GlyN3 building unit at 9 with D-Cys on its omega-amine; C-terminal amide; ReO (oxorhenium(V)) chelated by the two Cys closes the ring
B24: ReO-GF-7 (peptide)
peptide: CXFWWKTFG
modifications: not fully specified; D-Cys at 1; beta-Ala at 2 (written X); D-Trp at 5; GlyN6 building unit at 9 with L-Cys on its omega-amine; C-terminal amide; ReO (oxorhenium(V)) chelated by the two Cys closes the ring
B25: ReO-GF-37 (peptide)
peptide: CXFWWKTFG
modifications: L-Cys at 1; beta-Ala at 2 (written X); D-Trp at 5; GlyN2 building unit at 9 with L-Cys on its omega-amine; C-terminal amide; ReO (oxorhenium(V)) chelated by the two Cys closes the ring
notes: also called ReO-LCys*-βAla-Phe-Trp-DTrp-Lys-Thr-Phe-GlyN2(LCys*)-NH2

biological target: T1, human cloned SST-R2 (human, UniProt P30874 1-369); assay: inhibition of 125I-Tyr11-SRIF-14 binding to membranes of CHO cells expressing cloned human SST-R2
T1 construct: whole, on cells; Assayed as membrane preparations of CHO cells expressing the cloned receptor, not as intact cells; also called hSST-R2; human SST-R2
Description: The SST analogs were tested for their potency in inhibition of the binding of ¹²⁵I-Tyr¹¹-SRIF (based on the method described by Raynor et. al., Molecular Pharmnacology 43: 838, 1993) to membrane preparations expressing the transmembranal SST receptors (SST-R1, 2, 3, 4 or 5). The receptor preparations used for these tests were either from the cloned human receptors selectively and stably expressed in Chinese Hamster Ovary (CHO) cells or from cell lines naturally expressing the SST-R5. Typically, cell membranes were homogenized in Tris buffer in the presence of protease inhibitors and incubated for 30-40 minutes with ¹²⁵I-Tyr¹¹-SRIF with different concentrations of the tested sample. The binding reactions were filtered, the filters were washed and the bound radioactivity was counted in β counter after addition of scintillation colution. Non specific binding was defined as the radioactivity remaining bound in the presence of 1 μM unlabeled SRIF-14.

T1 sequence (P30874 whole entry): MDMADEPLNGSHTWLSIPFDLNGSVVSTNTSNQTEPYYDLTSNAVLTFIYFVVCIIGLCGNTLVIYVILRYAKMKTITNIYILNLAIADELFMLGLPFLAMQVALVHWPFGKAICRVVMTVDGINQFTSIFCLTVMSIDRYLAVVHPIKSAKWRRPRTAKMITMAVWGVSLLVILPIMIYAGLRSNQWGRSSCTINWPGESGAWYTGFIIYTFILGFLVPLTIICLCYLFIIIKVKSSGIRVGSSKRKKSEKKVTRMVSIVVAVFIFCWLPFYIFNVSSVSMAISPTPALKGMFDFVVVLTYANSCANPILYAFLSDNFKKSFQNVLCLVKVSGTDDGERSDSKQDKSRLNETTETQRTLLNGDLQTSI

B1 and B2 cannot be ordered by IC50: 13 nM for the first, greater than 10 nM for the second.

B3 and B4 cannot be ordered by IC50: greater than 10 nM for the first, greater than 10 nM for the second.

Compared with B5, B6 is 9-fold lower in IC50: 18 nM for the first, 2 nM for the second.

B7 and B8 cannot be ordered by IC50: greater than 10 nM for the first, 35 nM for the second.

First: B9
Second: B10
The IC50 of the first is lower: 1 nM for the first, greater than 10 nM for the second.

First: B11
Second: B12
The IC50 of the first is lower: 7 nM for the first, greater than 10 nM for the second. The first is the more potent here.

B13 and B14 are within 1.5-fold of each other in IC50: 24 nM for the first, 20 nM for the second.

First: B15
Second: B16
The IC50 of the first is higher: greater than 10 nM for the first, 9 nM for the second. The second is the more potent here.

B17 and B18 cannot be ordered by IC50: 14 nM for the first, greater than 10 nM for the second.

First: B19
Second: B20
The IC50 of the first is lower: 3 nM for the first, greater than 10 nM for the second.

Going from B21 to B22, the IC50 rises from 6 nM to 10 nM (1.7-fold).

B23 and B24 are within 1.5-fold of each other in IC50: 11 nM for the first, 12 nM for the second.

Binder B25 has an IC50 of 3 nM.
